Measured values published in publication PMC2952866 (Nucleic Acids Research, 2010).

Experiments:
Assay in all cases: SEC + co-IP
Mcm6 = Mcm6 (Saccharomyces cerevisiae, UniProt P53091 1-1017)
Mcm2 = biological target: T1, Mcm2 (Saccharomyces cerevisiae, UniProt P29469 1-868)
T1 sequence: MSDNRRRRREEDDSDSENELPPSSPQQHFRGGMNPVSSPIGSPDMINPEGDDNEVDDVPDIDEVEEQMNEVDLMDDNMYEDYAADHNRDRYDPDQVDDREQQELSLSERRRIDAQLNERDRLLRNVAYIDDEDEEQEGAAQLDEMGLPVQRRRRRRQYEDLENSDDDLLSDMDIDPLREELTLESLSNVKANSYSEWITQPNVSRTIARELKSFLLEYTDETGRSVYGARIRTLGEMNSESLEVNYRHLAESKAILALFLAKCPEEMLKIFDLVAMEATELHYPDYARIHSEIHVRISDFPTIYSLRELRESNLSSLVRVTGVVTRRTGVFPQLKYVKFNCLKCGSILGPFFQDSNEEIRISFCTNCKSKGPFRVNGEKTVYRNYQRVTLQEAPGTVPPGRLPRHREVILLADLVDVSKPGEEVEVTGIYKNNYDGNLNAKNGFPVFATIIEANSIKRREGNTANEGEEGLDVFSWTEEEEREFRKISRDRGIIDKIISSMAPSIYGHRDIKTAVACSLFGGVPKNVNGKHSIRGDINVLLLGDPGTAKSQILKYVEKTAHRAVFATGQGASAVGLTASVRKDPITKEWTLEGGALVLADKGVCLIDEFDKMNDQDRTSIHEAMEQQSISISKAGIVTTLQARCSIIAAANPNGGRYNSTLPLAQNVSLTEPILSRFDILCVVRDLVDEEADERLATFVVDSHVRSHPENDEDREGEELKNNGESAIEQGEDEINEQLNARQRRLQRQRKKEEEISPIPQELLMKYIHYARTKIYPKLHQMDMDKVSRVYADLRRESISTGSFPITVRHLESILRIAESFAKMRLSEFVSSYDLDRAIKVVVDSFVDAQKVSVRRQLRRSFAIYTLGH

Mcm3 = Mcm3 (Saccharomyces cerevisiae, UniProt P24279 1-971)
Chain of Mcm3 (P24279 whole entry): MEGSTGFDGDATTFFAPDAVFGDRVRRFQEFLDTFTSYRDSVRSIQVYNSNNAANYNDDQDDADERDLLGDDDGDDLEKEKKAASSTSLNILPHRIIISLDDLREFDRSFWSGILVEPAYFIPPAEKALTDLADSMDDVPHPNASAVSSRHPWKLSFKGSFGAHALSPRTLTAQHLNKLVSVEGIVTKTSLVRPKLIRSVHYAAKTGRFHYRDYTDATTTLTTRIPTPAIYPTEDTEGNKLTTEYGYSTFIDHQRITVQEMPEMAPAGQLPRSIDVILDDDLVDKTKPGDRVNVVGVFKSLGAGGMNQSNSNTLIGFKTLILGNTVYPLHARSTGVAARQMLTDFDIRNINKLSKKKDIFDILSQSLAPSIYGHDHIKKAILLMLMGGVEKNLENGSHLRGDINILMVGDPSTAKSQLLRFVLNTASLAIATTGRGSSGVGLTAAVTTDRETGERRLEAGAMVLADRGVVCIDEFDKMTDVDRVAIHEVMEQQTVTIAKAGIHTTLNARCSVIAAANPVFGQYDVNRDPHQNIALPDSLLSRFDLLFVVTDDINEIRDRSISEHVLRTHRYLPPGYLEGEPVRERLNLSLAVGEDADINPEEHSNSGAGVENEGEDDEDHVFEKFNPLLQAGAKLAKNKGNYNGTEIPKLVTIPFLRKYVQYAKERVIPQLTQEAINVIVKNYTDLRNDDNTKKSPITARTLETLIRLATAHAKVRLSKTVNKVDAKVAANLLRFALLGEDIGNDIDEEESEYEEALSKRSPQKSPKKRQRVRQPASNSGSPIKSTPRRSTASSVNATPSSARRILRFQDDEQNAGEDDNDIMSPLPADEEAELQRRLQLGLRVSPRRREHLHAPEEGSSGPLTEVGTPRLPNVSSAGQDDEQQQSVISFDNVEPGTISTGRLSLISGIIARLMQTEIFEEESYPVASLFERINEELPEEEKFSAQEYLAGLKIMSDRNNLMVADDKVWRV

Mcm4 = biological target: T2, Mcm4 (Saccharomyces cerevisiae, UniProt P30665 1-933)
T2 sequence: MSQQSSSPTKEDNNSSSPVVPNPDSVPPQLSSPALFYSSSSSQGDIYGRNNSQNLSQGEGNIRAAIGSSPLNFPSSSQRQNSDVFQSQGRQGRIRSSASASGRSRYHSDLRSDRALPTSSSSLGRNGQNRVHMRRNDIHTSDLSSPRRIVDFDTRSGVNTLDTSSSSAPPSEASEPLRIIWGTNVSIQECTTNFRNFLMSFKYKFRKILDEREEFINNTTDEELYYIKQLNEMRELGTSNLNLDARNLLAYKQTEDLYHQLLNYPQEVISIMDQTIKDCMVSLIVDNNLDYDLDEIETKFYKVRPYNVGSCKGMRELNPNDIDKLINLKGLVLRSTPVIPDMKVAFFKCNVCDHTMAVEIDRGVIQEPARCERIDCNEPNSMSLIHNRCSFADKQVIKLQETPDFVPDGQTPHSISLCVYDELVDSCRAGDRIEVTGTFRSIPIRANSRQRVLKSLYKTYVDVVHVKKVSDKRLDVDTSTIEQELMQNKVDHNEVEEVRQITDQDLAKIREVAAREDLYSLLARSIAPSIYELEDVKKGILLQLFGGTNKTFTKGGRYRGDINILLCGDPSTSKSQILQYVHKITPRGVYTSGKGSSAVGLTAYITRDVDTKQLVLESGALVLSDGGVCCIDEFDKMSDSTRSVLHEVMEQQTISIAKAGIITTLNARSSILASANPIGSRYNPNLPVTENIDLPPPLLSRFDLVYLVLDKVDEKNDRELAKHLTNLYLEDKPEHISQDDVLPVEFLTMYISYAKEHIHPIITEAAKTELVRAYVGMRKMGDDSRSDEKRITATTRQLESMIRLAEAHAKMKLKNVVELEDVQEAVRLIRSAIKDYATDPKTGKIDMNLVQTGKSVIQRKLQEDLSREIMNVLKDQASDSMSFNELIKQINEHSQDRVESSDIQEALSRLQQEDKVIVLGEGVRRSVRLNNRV

Measured: binding result

Chain of Mcm6 (P53091 whole entry): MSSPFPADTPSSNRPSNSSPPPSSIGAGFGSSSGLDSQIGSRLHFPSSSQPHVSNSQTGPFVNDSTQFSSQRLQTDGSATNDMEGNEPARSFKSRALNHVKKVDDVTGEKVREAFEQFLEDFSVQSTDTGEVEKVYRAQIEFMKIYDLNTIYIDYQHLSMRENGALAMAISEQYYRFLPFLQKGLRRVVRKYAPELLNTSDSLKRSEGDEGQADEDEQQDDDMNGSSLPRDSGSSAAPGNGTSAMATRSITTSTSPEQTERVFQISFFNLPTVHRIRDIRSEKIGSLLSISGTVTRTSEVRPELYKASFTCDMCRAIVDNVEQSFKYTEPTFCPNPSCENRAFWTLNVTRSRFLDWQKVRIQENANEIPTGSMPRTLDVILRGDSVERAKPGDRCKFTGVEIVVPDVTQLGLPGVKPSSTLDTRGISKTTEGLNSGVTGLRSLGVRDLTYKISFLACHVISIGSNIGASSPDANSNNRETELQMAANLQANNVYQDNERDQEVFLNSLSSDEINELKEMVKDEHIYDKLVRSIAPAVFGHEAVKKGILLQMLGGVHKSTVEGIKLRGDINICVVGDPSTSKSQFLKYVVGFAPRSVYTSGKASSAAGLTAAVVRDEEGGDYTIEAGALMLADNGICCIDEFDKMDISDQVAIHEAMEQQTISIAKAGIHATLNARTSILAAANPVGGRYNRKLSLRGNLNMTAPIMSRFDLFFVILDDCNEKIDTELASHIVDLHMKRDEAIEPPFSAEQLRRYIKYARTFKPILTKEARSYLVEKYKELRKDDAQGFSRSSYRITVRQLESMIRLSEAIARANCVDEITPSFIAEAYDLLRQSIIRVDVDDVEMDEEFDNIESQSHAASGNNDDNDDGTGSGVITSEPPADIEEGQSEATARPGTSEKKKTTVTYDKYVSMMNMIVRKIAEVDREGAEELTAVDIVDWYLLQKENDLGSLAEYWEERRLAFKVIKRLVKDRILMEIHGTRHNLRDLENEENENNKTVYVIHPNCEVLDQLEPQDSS

B1: Mcm7 (natural protein)
chain: MSAALPSIQLPVDYNNLFNEITDFLVTFKQDTLSSDATRNENEDENLDAENIEQHLLEKGPKYMAMLQKVANRELNSVIIDLDDILQYQNEKFLQGTQADDLVSAIQQNANHFTELFCRAIDNNMPLPTKEIDYKDDVLDVILNQRRLRNERMLSDRTNEIRSENLMDTTMDPPSSMNDALREVVEDETELFPPNLTRRYFLYFKPLSQNCARRYRKKAISSKPLSVRQIKGDFLGQLITVRGIITRVSDVKPAVEVIAYTCDQCGYEVFQEVNSRTFTPLSECTSEECSQNQTKGQLFMSTRASKFSAFQECKIQELSQQVPVGHIPRSLNIHVNGTLVRSLSPGDIVDVTGIFLPAPYTGFKALKAGLLTETYLEAQFVRQHKKKFASFSLTSDVEERVMELITSGDVYNRLAKSIAPEIYGNLDVKKALLLLLVGGVDKRVGDGMKIRGDINVCLMGDPGVAKSQLLKAICKISPRGVYTTGKGSSGVGLTAAVMKDPVTDEMILEGGALVLADNGICCIDEFDKMDESDRTAIHEVMEQQTISISKAGINTTLNARTSILAAANPLYGRYNPRLSPLDNINLPAALLSRFDILFLMLDIPSRDDDEKLAEHVTYVHMHNKQPDLDFTPVEPSKMREYIAYAKTKRPVMSEAVNDYVVQAYIRLRQDSKREMDSKFSFGQATPRTLLGIIRLSQALAKLRLADMVDIDDVEEALRLVRVSKESLYQETNKSKEDESPTTKIFTIIKKMLQETGKNTLSYENIVKTVRLRGFTMLQLSNCIQEYSYLNVWHLINEGNTLKFVDDGTMDTDQEDSLVSTPKLAPQTTASANVSAQDSDIDLQDA
binds: all assays above
